What is called koff is the rate constant with which the complex falls apart. The term kon denotes the second-order rate constant of association. For orientation: Kd means the free concentration of one partner at which half of the binding sites on the other are occupied at equilibrium, for simple one-to-one binding.

Results on 2 molecules are retold here after patent US20200157187A1 (LOYOLA UNIVERSITY CHICAGO, published 2020).

In one test the target is T1, TGF-β3 (UniProt P10600 301-412).
T1 sequence (looked up): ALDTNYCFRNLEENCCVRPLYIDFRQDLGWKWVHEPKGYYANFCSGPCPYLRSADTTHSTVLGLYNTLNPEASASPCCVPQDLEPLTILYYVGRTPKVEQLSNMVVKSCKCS
The test can be described thus: ELISA on coated TGF-β isoforms. For orientation: An ELISA detects its analyte on a solid surface through an enzyme-linked reagent.

The next test addresses T2, TGF-β2 (UniProt P61812 303-414).
T2 sequence (looked up): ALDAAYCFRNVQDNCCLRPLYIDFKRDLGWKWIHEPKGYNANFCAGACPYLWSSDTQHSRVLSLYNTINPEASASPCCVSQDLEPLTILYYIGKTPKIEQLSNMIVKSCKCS
The test can be described thus: ELISA on coated TGF-β isoforms.

For test [1], the target named is T3, active TGF-β on the surface of human CD4+CD25+ Tregs (human, UniProt P01137 279-390, The active form is a disulfide-linked homodimer of the growth factor domain; one chain is given.).
T3 construct: also called surface TGF-β; surface active TGF-β
T3 sequence (P01137 279-390 limits assumed): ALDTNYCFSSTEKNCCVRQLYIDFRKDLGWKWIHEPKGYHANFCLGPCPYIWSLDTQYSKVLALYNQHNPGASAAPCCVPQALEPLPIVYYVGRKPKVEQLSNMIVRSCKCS
The test is described as follows: confocal microscopy of human Tregs, detected with anti-rabbit Fab-AF488. On the procedure:
FIGS. 5A and 5B represent functional characterization of 6Fc. FIG. 5A represents an effect of 6Fc on phosphorylation of SMAD2/3. […] As a control, WTFc was used (shown on the right panel). Phosphorylation of SMAD2,3 was assessed by flow cytometry (solid line). Dotted lines show isotype control staining. FIG. 5B represents confocal images of Tregs stained with the monobody-Ig fusion proteins. Purified human PBMC-derived Tregs were mixed with 6Fc or WTFc (40 μg/ml), followed by anti-rabbit Fab-AF488 (green) and Hoechst-33342 (blue) staining. Single-cell images were obtained using an LSM-510 confocal microscope (×40).

In test [2] the target is T4, active TGF-β1, recombinant (Ala279-Ser390) (UniProt P01137 279-390).
T4 construct: range 279-390; The background describes the growth factor domain as a dimer; also called purified active TGF-β1
T4 sequence (P01137 279-390 limits assumed, form in doubt): as the sequence (P01137 279-390 limits assumed) above
The test is described as follows: SPR, kinetic analysis on active TGF-β.

Test [3] deals with T4, active TGF-β1, recombinant …. The test can be described thus: SPR, chip coated with active TGF-β, positive control antibody.

B1: WTFc (wild-type FN3 fused to rabbit IgG constant region CH2/CH3, His6 tag) (Fc fusion)
chain (part 1 of 2): AVSDVPRKLEVVAATPTSLLISWDAPIKRRLYYRITYGETGGNSPVQEFTVPGSKSTATISGLKPGVDYTITVYAVTYPAPYSKPISINYR
chain (part 2 of 2): HHHHHH
notes: Control fusion protein; also called wild-type FN3 fusion protein; not shown: rabbit IgG constant region, CH2/CH3 (Cγ2-Cγ3) domains
For the molecule B1, the binding result is “no binding” with TGF-β3, “no binding” with TGF-β2 and “no binding (tested: 40 µg/ml)” in test [1].

B2: anti-TGF-β monoclonal antibody 1D11 (antibody, V domains shown)
VH: QVQLQQSGPELVRPGASVKLSCKASGYIFITYWMNWVKQRPGQGLEWIGQIFPASGSTNYNEMFEGKATLTVDTSSSTAYMQLSSLTSEDSAVYYCARGDGNYALDAMDYWGQGTSVTVSS
VL: DIVLTQSPASLAVSLGQRATISCRASESVDSYGNSFMHWYQQKSGQPPKLLIYLASNLESGVPARFSGSGSRTDFTLTIDPVEADDAATYYCQQNNEDPLTFGAGTKLEIK
Consider B2, for which, in test [2], the koff was determined as 0.00028 s⁻¹ and the kon is 14000 M⁻¹ s⁻¹. In addition, the dissociation constant Kd in test [3] turned out to be 1.9 nM.
